Laboratory results taken from PMC3646729, “Recruitment, Assembly, and Molecular Architecture of the SpoIIIE DNA Pump Revealed by Superresolution Microscopy” (PLoS Biology, 2013).

Molecular target: the molecule itself
Assay: two-photon number and brightness analysis (N&B, fluorescence fluctuation microscopy); live B. subtilis cells with SpoIIIE-GFP; clusters at sporulation and division septa, after induction of sporulation or in exponential growth; brightness normalised to monomeric freely diffusing GFP; excitation at 930 nm, 50 raster scans

B1: SpoIIIE-GFP fusion (natural protein, B. subtilis, UniProt P21458 1-787, looked up)
chain: MAKKKRKSRKKQAKQLNIKYELNGLLCIAISIIAILQLGVVGQTFIYLFRFFAGEWFILCLLGLLVLGVSLFWKKKTPSLLTRRKAGLYCIIASILLLSHVQLFKNLTHKGSIESASVVRNTWELFLMDMNGSSASPDLGGGMIGALLFAASHFLFASTGSQIMAIVMILIGMILVTGRSLQETLKKWMSPIGRFIKEQWLAFIDDMKSFKSNMQSSKKTKAPSKKQKPARKKQQMEPEPPDEEGDYETVSPLIHSEPIISSFSDRNEEEESPVIEKRAEPVSKPLQDIQPETGDQETVSAPPMTFTELENKDYEMPSLDLLADPKHTGQQADKKNIYENARKLERTFQSFGVKAKVTQVHLGPAVTKYEVYPDVGVKVSKIVNLSDDLALALAAKDIRIEAPIPGKSAIGIEVPNAEVAMVSLKEVLESKLNDRPDAKLLIGLGRNISGEAVLAELNKMPHLLVAGATGSGKSVCVNGIITSILMRAKPHEVKMMMIDPKMVELNVYNGIPHLLAPVVTDPKKASQALKKVVNEMERRYELFSHTGTRNIEGYNDYIKRANNEEGAKQPELPYIVVIVDELADLMMVASSDVEDSITRLSQMARAAGIHLIIATQRPSVDVITGVIKANIPSRIAFSVSSQTDSRTILDMGGAEKLLGRGDMLFLPVGANKPVRVQGAFLSDDEVEKVVDHVITQQKAQYQEEMIPEETTETHSEVTDELYDEAVELIVGMQTASVSMLQRRFRIGYTRAARLIDAMEERGVVGPYEGSKPREVLLSKEKYDELSS
notes: SpoIIIE DNA translocase of Bacillus subtilis (strain PY79 derivative); the SpoIIIE gene was replaced by a SpoIIIE-GFP fusion, no wild-type copy left; The fusion is said to be fully functional, so it is probably the whole protein; also called SpoIIIE ATPase; SpoIIIE DNA translocase; source: B. subtilis PY79 derivative, SpoIIIE-GFP fusion under the endogenous promoter, in live cells
B1 was tested, and the “stoichiometry N” value was 6.
